Assay results published in publication PMC10163214, “E. coli allantoinase is activated by the downstream metabolic enzyme, glycerate kinase, and stabilizes the putative allantoin transporter by direct binding” (Scientific Reports, 2023).

Columns and labels:
[1] = target: T1, AllB (allantoinase; AllB_Zn, AllB_Mn) (Escherichia coli, UniProt P77671); test: absorbance of allantoate at […] nm; type: biochemical; conditions: 0.1 mM ZnSO4, no GlxK, no glyoxylate, pH 8.0
T1 construct: full length; expressed in E. coli; tetrameric
T1 sequence (P77671 1-453): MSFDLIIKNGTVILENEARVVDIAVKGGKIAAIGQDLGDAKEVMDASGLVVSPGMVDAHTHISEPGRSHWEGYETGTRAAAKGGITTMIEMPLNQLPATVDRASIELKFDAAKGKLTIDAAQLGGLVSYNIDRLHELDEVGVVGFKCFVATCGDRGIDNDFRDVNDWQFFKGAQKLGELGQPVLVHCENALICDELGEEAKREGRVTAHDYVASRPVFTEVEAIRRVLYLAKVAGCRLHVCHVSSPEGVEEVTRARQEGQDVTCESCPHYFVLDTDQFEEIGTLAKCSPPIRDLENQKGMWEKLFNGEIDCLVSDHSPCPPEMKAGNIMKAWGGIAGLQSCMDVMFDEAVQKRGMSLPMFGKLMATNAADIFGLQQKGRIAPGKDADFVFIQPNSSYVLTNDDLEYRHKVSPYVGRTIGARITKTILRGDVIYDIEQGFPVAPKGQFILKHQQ

AllW (YbbW) = target: T2, AllW (YbbW) (Escherichia coli, UniProt P75712); test: cellular allantoin uptake by GC-MS; type: cell-based; conditions: 1 mM allantoin, PBS with glucose, delta-allC cells; uptake lost in allW or allB deletion
T2 construct: native chromosomal AllW in delta-allC cells, stabilised by AllB; compared with allW and allB deletion strains; with Allantoinase

purified protein [2] = substrate: O=C(O)[C@H](O)CO; test: purified protein; type: biochemical, Escherichia coli; conditions: 10 mM MgSO4, 1.2 mM ATP, pH 7.4, 37 °C
purified protein [3] = substrate: NC(=O)NC1NC(=O)NC1=O; test: purified protein; type: biochemical, Escherichia coli; conditions: AllB_Mn, 0.2 mM MnSO4, no GlxK, 0.9 mM glyoxylate present, pH 8.0, 37 °C

T2 sequence (P75712 whole entry): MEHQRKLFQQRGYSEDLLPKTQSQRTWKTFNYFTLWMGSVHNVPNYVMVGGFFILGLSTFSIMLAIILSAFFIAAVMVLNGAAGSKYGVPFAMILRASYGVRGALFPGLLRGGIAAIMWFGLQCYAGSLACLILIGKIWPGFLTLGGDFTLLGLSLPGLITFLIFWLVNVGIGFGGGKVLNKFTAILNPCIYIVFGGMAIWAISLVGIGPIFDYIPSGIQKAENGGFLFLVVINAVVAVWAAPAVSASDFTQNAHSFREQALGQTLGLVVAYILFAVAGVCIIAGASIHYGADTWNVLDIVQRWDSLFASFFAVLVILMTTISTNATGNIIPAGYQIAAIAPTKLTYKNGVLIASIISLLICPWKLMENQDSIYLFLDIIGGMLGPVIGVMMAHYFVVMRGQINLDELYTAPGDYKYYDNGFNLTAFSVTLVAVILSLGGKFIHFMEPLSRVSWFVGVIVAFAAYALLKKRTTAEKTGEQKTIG

In the case of `NC(=O)NC1NC(=O)NC1=O` (stereo not drawn) [allantoin], the Km [1] is reported as over 15 mM and the “cellular allantoin uptake by GC-MS” value (AllW (YbbW)) is reported as “no allantoin uptake was detected in either the AW12 (ΔallC–ΔallB) or the AW13 (ΔallC–ΔallW) mutant”.

B1: GlxK (glycerate 2-kinase) (Escherichia coli K-12) (protein)
chain: MKIVIAPDSFKESLSAEKCCQAIKAGFSTLFPDANYICLPIADGGEGTVDAMVAATGGNIVTLEVCGPMGEKVNAFYGLTGDGKTAVIEMAAASGLMLVAPEKRNPLLASSFGTGELIRHALDNDIRHIILGIGGSATVDGGMGMAQALGVRFLDADGQALAANGGNLARVASIEMDECDPRLANCHIEVACDVDNPLVGARGAAAVFGPQKGATPEMVEELEQGLQNYARVLQQQTEINVCQMAGGGAAGGMGIAAAVFLNADIKPGIEIVLNAVNLAQAVQGAALVITGEGRIDSQTAGGKAPLGVASVAKQFNVPVIGIAGVLGDGVEVVHQYGIDAVFSILPRLAPLAEVLASGETNLFNSARNIACAIKIGQGIKN
notes: full length, N-terminal His6 tag, expressed in E. coli; GlxK-His 41 kDa
Molecule B1 has a Km (purified protein [2]) of 0.085 ± 0.009 mM and a Vmax (purified protein [2]) of 4.6 ± 0.3 U/mg protein.

B2: AllB (allantoinase; AllB_Zn, AllB_Mn) (Escherichia coli K-12) (protein)
chain: MSFDLIIKNGTVILENEARVVDIAVKGGKIAAIGQDLGDAKEVMDASGLVVSPGMVDAHTHISEPGRSHWEGYETGTRAAAKGGITTMIEMPLNQLPATVDRASIELKFDAAKGKLTIDAAQLGGLVSYNIDRLHELDEVGVVGFKCFVATCGDRGIDNDFRDVNDWQFFKGAQKLGELGQPVLVHCENALICDELGEEAKREGRVTAHDYVASRPVFTEVEAIRRVLYLAKVAGCRLHVCHVSSPEGVEEVTRARQEGQDVTCESCPHYFVLDTDQFEEIGTLAKCSPPIRDLENQKGMWEKLFNGEIDCLVSDHSPCPPEMKAGNIMKAWGGIAGLQSCMDVMFDEAVQKRGMSLPMFGKLMATNAADIFGLQQKGRIAPGKDADFVFIQPNSSYVLTNDDLEYRHKVSPYVGRTIGARITKTILRGDVIYDIEQGFPVAPKGQFILKHQQ
notes: full length; expressed in E. coli; tetrameric
Molecule B2 has a Km (purified protein [3]) of 5.8 ± 1.2 mM and a Vmax (purified protein [3]) of 246 ± 32 U/mg protein.
